Consider three proteins from article PMC4465127 (Nature Communications, 2015).

Series [1] concerns the molecule itself. Nature of the series: SAXS; home source, I(0)/c, without ligand; 4 °C, pH 8.0, 1.2 to 5 mg/ml protein.
Series [2] deals with the molecule itself. Nature of the series: AUC; sedimentation equilibrium, without ligand; 1 to 8 μM receptor, 10 mM Hepes pH 8.0, 150 mM NaCl, 20 °C, three speeds; dimer to monomers.
Series [3] concerns the molecule itself. Nature of the series: AUC; sedimentation equilibrium with 50-70 μM LIN-3^EGF added; 1 to 8 μM receptor, 10 mM Hepes pH 8.0, 150 mM NaCl, 20 °C, three speeds; dimer to monomers.
Series [4] deals with the molecule itself. Nature of the series: SEC; unliganded sLET-23 during initial purification; Superose 6 10/300 GL, 10 mM Hepes pH 8.0, 150 mM NaCl.

B1: sLET-23ΔV (LET-23 extracellular region with domain V deleted) (domain or fragment, C. elegans, UniProt P24348 21-645, looked up)
chain: FGNSNAQLWKRCVSPQDCLCSGTTNGISRYGTGNILEDLETMYRGCRRVYGNLEITWIEANEIKKWRESTNSTVDPKNEDSPLKSINFFDNLEEIRGSLIIYRANIQKISFPRLRVIYGDEVFHDNALYIHKNDKVHEVVMRELRVIRNGSVTIQDNPKMCYIGDKIDWKELLYDPDVQKVETTNSHQHCYQNGKSMAKCHESCNDKCWGSGDNDCQRVYRSVCPKSCSQCFYSNSTSSYECCDSACLGGCTGHGPKNCIACSKYELDGICIETCPSRKIFNHKTGRLVFNPDGRYQNGNHCVKECPPELLIENDVCVRHCSDGHHYDATKDVRECEKCRSSSCPKICTVDGHLTNETLKNLEGCEQIDGHLIIEHAFTYEQLKVLETVKIVSEYITIVQQNFYDLKFLKNLQIIEGRKLHNVRWALAIYQCDDLEELSLNSLKLIKTGAVLIMKNHRLCYVSKIDWSSIITSKGKDNKPSLAIAENRDSKLCETEQRVCDKNCNKRGCWGKEPEDCLECKTWKSVGTCVEKCDTKGFLRNQTSMKCERCSPECETCNGLGELDCLTCRHKTLYNSDFGNRMECVHDCPVSHFPTQKNVCEKCHPTCYDNGCTGPDSNLGYGGCK
notes: signal peptide in the construct; LET-23 of C. elegans, extracellular domains I-IV (domain V deleted); Dimer by SEC-MALS, SE-AUC and SAXS; source: Sf9 cells (baculovirus), purified from conditioned medium (Ni-NTA, cation exchange, Superose 6)
As to B1, in series [1], the “stoichiometry N” value came to 2.

B2: sLET-23ΔIV/V (LET-23 extracellular region with domains IV and V deleted) (domain or fragment, C. elegans, UniProt P24348 21-539, looked up)
chain: FGNSNAQLWKRCVSPQDCLCSGTTNGISRYGTGNILEDLETMYRGCRRVYGNLEITWIEANEIKKWRESTNSTVDPKNEDSPLKSINFFDNLEEIRGSLIIYRANIQKISFPRLRVIYGDEVFHDNALYIHKNDKVHEVVMRELRVIRNGSVTIQDNPKMCYIGDKIDWKELLYDPDVQKVETTNSHQHCYQNGKSMAKCHESCNDKCWGSGDNDCQRVYRSVCPKSCSQCFYSNSTSSYECCDSACLGGCTGHGPKNCIACSKYELDGICIETCPSRKIFNHKTGRLVFNPDGRYQNGNHCVKECPPELLIENDVCVRHCSDGHHYDATKDVRECEKCRSSSCPKICTVDGHLTNETLKNLEGCEQIDGHLIIEHAFTYEQLKVLETVKIVSEYITIVQQNFYDLKFLKNLQIIEGRKLHNVRWALAIYQCDDLEELSLNSLKLIKTGAVLIMKNHRLCYVSKIDWSSIITSKGKDNKPSLAIAENRDSKLCETEQRVCDKNCNKRGCWGKEPEDCLE
notes: signal peptide in the construct; LET-23 of C. elegans, extracellular domains I-III (domains IV and V deleted); source: Sf9 cells (baculovirus), purified from conditioned medium (Ni-NTA, cation exchange, Superose 6)
Regarding B2, the Kd in series [2] was 30 µM; in series [3] it was 5 µM.

B3: LET-23 extracellular region (sLET-23) (domain or fragment, C. elegans, UniProt P24348 21-819, looked up)
chain: FGNSNAQLWKRCVSPQDCLCSGTTNGISRYGTGNILEDLETMYRGCRRVYGNLEITWIEANEIKKWRESTNSTVDPKNEDSPLKSINFFDNLEEIRGSLIIYRANIQKISFPRLRVIYGDEVFHDNALYIHKNDKVHEVVMRELRVIRNGSVTIQDNPKMCYIGDKIDWKELLYDPDVQKVETTNSHQHCYQNGKSMAKCHESCNDKCWGSGDNDCQRVYRSVCPKSCSQCFYSNSTSSYECCDSACLGGCTGHGPKNCIACSKYELDGICIETCPSRKIFNHKTGRLVFNPDGRYQNGNHCVKECPPELLIENDVCVRHCSDGHHYDATKDVRECEKCRSSSCPKICTVDGHLTNETLKNLEGCEQIDGHLIIEHAFTYEQLKVLETVKIVSEYITIVQQNFYDLKFLKNLQIIEGRKLHNVRWALAIYQCDDLEELSLNSLKLIKTGAVLIMKNHRLCYVSKIDWSSIITSKGKDNKPSLAIAENRDSKLCETEQRVCDKNCNKRGCWGKEPEDCLECKTWKSVGTCVEKCDTKGFLRNQTSMKCERCSPECETCNGLGELDCLTCRHKTLYNSDFGNRMECVHDCPVSHFPTQKNVCEKCHPTCYDNGCTGPDSNLGYGGCKQCKYAVKYENDTIFCLQSSGMNNVCVENDLPNYYISTYDTEGVIETHCEKCSISCKTCSSAGRNVVQNKCVCKHVEYQPNPSERICMDQCPVNSFMVPDTNNTVCKKCHHECDQNYHCANGQSTGCQKCKNFTVFKGDIAQCVSECPKNLPFSNPANGECLDYDIASRQRKTRM
notes: signal peptide in the construct; LET-23, the C. elegans EGFR orthologue, extracellular region with domains I-V; Glycosylated (six predicted N-glycosylation sites); Constitutive dimer by SEC and SE-AUC; also called isolated LET-23 extracellular region; C. elegans EGFR extracellular region; source: Sf9 cells (baculovirus), purified from conditioned medium (Ni-NTA, cation exchange, Superose 6)
B3 gave a Kd in series [2] of under 1 µM. The “stoichiometry N” value in series [4] is 2.
